Reference: IntAct's records for PubMed 29039417

B1: Isoform 2 of Bardet-Biedl syndrome 7 protein (Homo sapiens), Q8IWZ6-2 (parent)
chain: MDLILNRMDYLQVGVTSQKTMKLIPASRHRATQKVVIGDHDGVVMCFGMKKGEAAAVFKTLPGPKIARLELGGVINTPQEKIFIAAASEIRGFTKRGKQFLSFETNLTESIKAMHISGSDLFLSASYIYNHYCDCKDQHYYLSGDKINDVICLPVERLSRITPVLACQDRVLRVLQGSDVMYAVEVPGPPTVLALHNGNGGDSGEDLLFGTSDGKLALIQITTSKPVRKWEIQNEKKRGGILCIDSFDIVGDGVKDLLVGRDDGMVEVYSFDNANEPVLRFDQMLSESVTSIQGGCVGKDSYDEIVVSTYSGWVTGLTTEPIHKESGPGEELKINQEMQNKISSLRNELEHLQYKVLQERENYQQSSQSSKAKSAVPSFGINDKFTLNKDDASYSLILEVQTAIDNVLIQSDVPIDLLDVDKNSAVVSFSSCDSESNDNFLLATYRCQADTTRLELKIRSIEGQYGTLQAYVTPRIQPKTCQVRQYHIKPLSLHQRTHFIDHDRPMNTLTLTGQFSFAEVHSWVVFCLPEVPEKPPAGECVTFYFQNTFLDTQLESTYRKGEGVFKSDNISTISILKDVLSKEATKRKINLNISYEINEVSVKHTLKLIHPKLEYQLLLAKKVQLIDALKELQIHEGNTNFLIPEYHCILEEADHLQEEYKKQPAHLERLYG
partner: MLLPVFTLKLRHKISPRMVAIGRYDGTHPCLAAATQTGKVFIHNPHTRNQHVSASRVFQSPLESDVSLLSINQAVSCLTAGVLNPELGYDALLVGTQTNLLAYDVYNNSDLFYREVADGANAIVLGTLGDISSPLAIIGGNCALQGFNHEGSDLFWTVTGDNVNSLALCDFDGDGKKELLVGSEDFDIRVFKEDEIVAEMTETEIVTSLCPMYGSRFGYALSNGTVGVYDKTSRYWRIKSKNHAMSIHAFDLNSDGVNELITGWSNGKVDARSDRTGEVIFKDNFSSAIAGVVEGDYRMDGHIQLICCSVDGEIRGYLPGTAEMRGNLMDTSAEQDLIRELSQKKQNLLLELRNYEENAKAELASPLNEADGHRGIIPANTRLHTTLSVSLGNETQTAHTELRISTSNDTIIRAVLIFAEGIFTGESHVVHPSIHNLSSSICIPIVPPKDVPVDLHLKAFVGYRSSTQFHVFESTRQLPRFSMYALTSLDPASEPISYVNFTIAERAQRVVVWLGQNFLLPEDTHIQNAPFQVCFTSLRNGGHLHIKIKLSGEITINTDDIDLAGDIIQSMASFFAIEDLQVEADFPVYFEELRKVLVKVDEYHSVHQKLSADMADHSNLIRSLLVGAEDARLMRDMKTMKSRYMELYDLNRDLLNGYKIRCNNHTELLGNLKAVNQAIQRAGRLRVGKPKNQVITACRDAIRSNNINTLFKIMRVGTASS

Variants of: B1
Details: with bbs2_human BBS2, Q9BXC9

Variant	effect of a mutation on the interaction
S430A	with no effect
S430E	with no effect
S430K	with no effect
E455K	disrupting interaction strength
S411A	with no effect
S411K	with no effect
S411E	with no effect
F440A	with no effect
F440K	with no effect
L454A	with no effect
T444A	with no effect
T444E	with no effect
Y445E	with no effect
N437K	with no effect
N437E	with no effect
N437A	with no effect
L418E	with no effect
L418A	with no effect
F429E	with no effect
S436E	with no effect
S436A	with no effect

Variant	effect of a mutation on the interaction
E435K	with no effect
E435A	with no effect
D419E	with no effect
D419A	with no effect
Q464K	with no effect
Q464A	with no effect
Q464E	with no effect
I461A	with no effect
I461E	with no effect
I461K	with no effect
V427K	with no effect
V427A	with no effect
D412A	with no effect
D412E	with no effect
P414K	with no effect
P414E	with no effect
C432A	with no effect
C432E	with no effect
C432K	with no effect
K422E	with no effect
K422A	with no effect

Variant	effect of a mutation on the interaction
D416K	with no effect
D416A	with no effect
V426K	with no effect
V426E	with no effect
A443K	with no effect
A443E	disrupting interaction strength
L417A	with no effect
R446K	with no effect
R446A	with no effect
S434K	with no effect
S434A	with no effect
E462A	with no effect
S431E	with no effect
S431K	with no effect
D438A	with no effect
D438E	with no effect
S460A	with no effect
S460K	with no effect
I409E	with no effect
I409K	with no effect
I409A	with no effect

Continued, values first:

effect of a mutation on the interaction	Variant
with no effect	E455A
with no effect	F440E
with no effect	L454K
with no effect	L454E
with no effect	T444K
with no effect	Y445K
with no effect	Y445A
with no effect	L418K
with no effect	A425K
with no effect	A425E
with no effect	F429K
with no effect	F429A
with no effect	S436K
with no effect	D419K
with no effect	V427E
with no effect	D412K
with no effect	P414A
with no effect	D416E
with no effect	V426A
with no effect	L417K
with no effect	L417E
with no effect	L468A
with no effect	R446E
with no effect	S434E
with no effect	E462K
with no effect	S431A
with no effect	D438K
with no effect	S460E
